PMC2234471 (The Journal of General Physiology, 2003)

B1: IQ2 peptide of KCNQ3 (481–503) (peptide)
peptide: AIRAVRILQFRLYKKKFKETLR
B2: IQ2 peptide of KCNQ2 (508–530) (peptide)
peptide: SIRAVCVMRFLVSKRKFKESLR

Molecular target: purified recombinant vertebrate CaM ( ("vertebrate"), UniProt P0DP23 1-149)
Assay: native gel or EMSA

| Binder | binding result |
| --- | --- |
| B1 | binds |
| B2 | binds |
